The numbers were not newly measured in PMC11442857, which cites them from elsewhere.

The data set has as its target Bovine serum albumin, fatty-acid-free (FAF-BSA) (UniProt P02769). In words: Analytical ultracentrifugation, sedimentation equilibrium. As to conditions: pH 7.2, 10 °C, PBS (concentration not stated).
Chain of UniProt P02769 (P02769 whole entry): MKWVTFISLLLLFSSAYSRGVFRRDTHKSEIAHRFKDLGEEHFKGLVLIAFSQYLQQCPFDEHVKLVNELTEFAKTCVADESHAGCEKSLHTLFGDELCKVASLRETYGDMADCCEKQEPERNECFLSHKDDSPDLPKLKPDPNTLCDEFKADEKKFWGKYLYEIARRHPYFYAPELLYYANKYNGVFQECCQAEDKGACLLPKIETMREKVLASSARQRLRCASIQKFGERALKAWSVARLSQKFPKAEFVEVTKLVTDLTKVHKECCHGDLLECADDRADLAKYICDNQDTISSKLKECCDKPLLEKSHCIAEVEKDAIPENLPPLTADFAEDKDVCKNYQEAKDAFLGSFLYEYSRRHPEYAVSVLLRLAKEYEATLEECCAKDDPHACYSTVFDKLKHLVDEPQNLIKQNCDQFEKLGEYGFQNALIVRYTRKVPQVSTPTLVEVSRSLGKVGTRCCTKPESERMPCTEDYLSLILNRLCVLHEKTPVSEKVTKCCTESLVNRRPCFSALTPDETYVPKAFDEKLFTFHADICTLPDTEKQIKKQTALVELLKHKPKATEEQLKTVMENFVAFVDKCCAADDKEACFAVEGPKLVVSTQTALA

Take “Bovine serum albumin, fatty-acid-free (FAF-BSA)”: the Kd dimer is 4.5 mM.
